Reference: patent US20040202655A1 (published 2004)
Values joined by “and” are separate entries in the source; they are usually repeats but may differ in a detail not shown here. Equal values may be shown once.

Experiments:
[1] = biological target: T1, human IGF-I receptor on cells (NIH-3T3 fibroblasts expressing the human IGF-IR; DU145 cells) (human, UniProt P08069 31-1367); experiment: cell-based or functional assay
[2] = biological target: T1, human IGF-I receptor on cells (NIH-3T3 …); experiment: cell-based or functional assay; remark: listed apart in the source
[3] = biological target: T1, human IGF-I receptor on cells (NIH-3T3 …); experiment: competition with 125I-IGF-I, NIH-3T3 cells expressing human IGF-1R, 4 C
Description: (§1) NIH-3T3 fibroblasts expressing the human IGF-IR, or NIH-3T3 non-transfected fibroblasts were plated at 6×10⁴ cells per well in 0.5 ml of DMEM (Gibco, #11960-044) supplemented with 10% heat-inactivated fetal bovine serum (Gibco, #16140-071), 2 mM L-glutamine (Gibco, #25030-081) and 50 U/ml penicillin-streptomycin (Gibco, #15070-063). The NIH-3T3 cells were used as a control for non-specific cell binding. The plates were incubated at 37° C./5% CO₂ for 24 hours to allow cells to attach and become 80-90% confluent. The overlying media was then replaced with 0.5 ml per well of starvation media consisting of DMEM, 20 mM Hepes (Gibco, #15630-080), 2 mM L-glutamine and 0.1% bovine serum albumin (Equitech-Bio, protease-free, Kerrville, Tex.) and the plates were incubated at 37° C., 5% CO₂ overnight. All subsequent binding steps were conducted at 4° C. Test antibodies were diluted in ice-cold starvation media to the desired final concentration and 100 μl added per well. All samples were performed in duplicate. […] Cell monolayers were washed three times with ice-cold PBS (Gibco, #14040-117) and cells and associated radioactivity were released by adding 0.5ml 2% sodium dodecyl sulfate/0.2N NaOH to each well and heating the plates at 60° C. for 15 minutes. Lysate associated radioactivity was quantitated by gamma scintillation spectrometry. Alternatively, the same described experiment was performed with preincubation with the test antibodies at 37° C. for 10 minutes, followed by 10 minutes incubation at 37° C. after addition of 400 pM of the iodinated radioligand.

[4] = biological target: T1, human IGF-I receptor on cells (NIH-3T3 …); experiment: competition with 125I-IGF-I, NIH-3T3 cells expressing human IGF-1R, 37 C
Description: as §1, with “Alternatively, the same described experiment was performed with preincubation with the test antibodies at 37° C. for 10 minutes, followed by 10 minutes incubation at 37° C. after addition of 400 pM of the iodinated radioligand.” left out

[5] = biological target: T1, human IGF-I receptor on cells (NIH-3T3 …); experiment: competition with 125I-IGF-II, NIH-3T3 cells expressing human IGF-1R, 4 C
Description: as §1

[6] = biological target: T1, human IGF-I receptor on cells (NIH-3T3 …); experiment: competition with 125I-IGF-II, NIH-3T3 cells expressing human IGF-1R, 37 C
[7] = biological target: T1, human IGF-I receptor on cells (NIH-3T3 …); experiment: saturation binding of 125I-labelled IgG to NIH-3T3 cells expressing human IGF-1R, on ice; unit inferred
Description: The mixtures were in incubated on ice for 70 min. After the incubation the tubes were centrifuged at 1000 rpm for 1 min and the supernatant fractions were removed by aspiration. The cell pellets were washed with 50 μl of ice-cold Hanks' Balanced Salt Solution containing 0.2% BSA and 20 mM Hepes and centrifuged at 1000 rpm for […] and the supernatant fractions were removed by aspiration. The resulting cell pellets were counted in Perkin Elmer Cobra Quantum gamma counter. […] The specific binding was obtained by subtracting the non-specific binding counts from the total binding counts in corresponding pairs.

- IC50 (nM), IGF-1 dependent proliferation of NIH-3T3/hIGF-1R cells (BrdU ELISA) [1]: 3.4 nM and 2.6 nM
- Antagonist Assay IC50 (nM), IGF-I-induced IGF-1R tyrosine phosphorylation (ELISA) [2]: 2.4 nM and 3.3 nM
- IC50 [3]: > 100 nM
- IC50 [4]: 1.9 nM
- IC50 [5]: > 75 nM
- IC50 [6]: 3 nM and 2.6 nM
- Kd [7]: 2.24 nM
B1: PINT-11A4 IgG (antibody, V domains shown)
VH: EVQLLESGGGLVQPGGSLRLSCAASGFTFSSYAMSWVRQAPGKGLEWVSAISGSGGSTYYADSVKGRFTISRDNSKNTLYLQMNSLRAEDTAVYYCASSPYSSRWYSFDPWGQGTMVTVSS
VL: LSYELTQPPSVSVSPGQTATITCSGDDLGNKYVSWYQQKPGQSPVLVIYQDTKRPSGIPERFSGSNSGNIATLTISGTQAVDEADYYCQVWDTGTVVFGGGTKLTVLG
